Assay results: the supplement of paper PMC9170038

Tested on: MS2 coat protein
Assay: apparent KD of MS2 coat protein; designed switch direction (-1 OFF switch, 1 ON switch): 1; higher = weaker reporter binding
How it was run: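 Designed RNA switches were transcribed on Illumina chips by stalled E. coli RNA polymerase and titrated with SNAP-549-labelled MS2 coat protein from 0.7 or 1.5 nM, doubling to 3 µM. Step length ran from 0.8–1.5 h at the lowest concentration to 10–20 min at the highest. The apparent KD is the median over clusters for each design, from curve-fitted normalised cluster fluorescence.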

[1] = Eterna round: R95, input ligand: FMN 200 uM
[2] = Eterna round: R95, input ligand: microRNA oligo, concentration not stated
[3] = Eterna round: R95, input ligand: none
[4] = input ligand: microRNA oligo, concentration not stated

Row | Sequence | apparent KD of MS2 coat protein [1] [nM] | apparent KD of MS2 coat protein [2] [nM] | apparent KD of MS2 coat protein [3] [nM] | apparent KD of MS2 coat protein (input ligand: FMN 200 uM) [nM] | apparent KD of MS2 coat protein [4] [nM] | apparent KD of MS2 coat protein (input ligand: none) [nM]
1 | AUAAGGCAAGCUUUUUUCUCGUUGUGUAAACAUGAGGAUCACCCAUGUGCUCGCCCUGGAUCUUUGGAUCGCAGAAA [Rarisooron] (puzzle: Sensor for hsa-mir-208a) | 104 | 33.6 | 119 | – | – | –
2 | GGAGCCGGCCUAGGAUAUUUCAUAUAAUAACAUGAGGAUCACCCAUGUAGGCCAGAAGGCCUUGGGAAGAAGGAGGUCGGCUCC [Loop Effect - U25,U28] (Eterna round: R96, puzzle: Same State NG 2) | – | – | – | 13.1 | 39.1 | 50.8
3 | GAGUGGCAGUUAGGAUAUAUAGUGAUAAUCACAAUAGAAGGAACAGACAUGAGGAUCACCCAUGUAGGACUAAUCCAGAGAGAG [Parity 37 - Jieux - Same State NG 1] (Eterna round: R96, puzzle: Same State NG 1) | – | – | – | 19.2 | 16.4 | 23.4
4 | AUGCCAAAACGAGGAUAUGGAGCCUUAUUGGCUCCAGAAGGUGUGACAUGAGGAUCACCCAUGUGGCAGUGGUCUAAUGACCAC [Eli NG1ss - 40] (Eterna round: R96, puzzle: Same State NG 1) | – | – | – | 94.2 | 105 | 133
5 | AUAAACAGGCUAGGAUAUCCGGAAACUACAGGGCACAACCCUAUAGACAUGAGGAUCACCCAUGUGGAGAAGGAGCCACAUGAA [Ceesis] (Eterna round: R96, puzzle: Same State NG 2) | – | – | – | 40.6 | 156 | 195
6 | CUGCUCGGGUGAGGAUAUGCCGCCGUUUCGGCUGCAGAAGGUGCUACGUUACAUGAGGAUCACCCAUGUCUCUGUUGUUUCGUU [salish99_SSNG1_r04_965] (Eterna round: R96, puzzle: Same State NG 1) | – | – | – | 72.1 | 42.8 | 62.2
7 | GUUACAUGAGGAUCACCCAUGUAUGUGUGGGAGUAAGUGUCUUAGGAUAUCUAGUUUUUAAUUUAAGAGAAGGAAGAUUGUUGU [JMF's solution 52] (Eterna round: R96, puzzle: Same State NG 3) | – | – | – | 151 | 67.2 | 114
8 | GUUACAUGAGGAUCACCCAUGUAUGUGUGGGAGUAAGUGUCUUAGGAUAUCUAUUAUUUAAUGUAAGAGAAGGAAGAUUGUUGU [JMF's solution 24] (Eterna round: R96, puzzle: Same State NG 3) | – | – | – | – | 106 | –
9 | GGAGCCGGCACUGAGGAUAUUCAUAUUAAAACAUGAGGAUCACCCAUGUAGGCCAGAAGGCCUUGGGAGAAGGCGGAUCGGCUCG [Xeonanis - 14] (puzzle: Same State 2) | 78.7 | 181 | 1070 | – | – | –
10 | GCGUUUAACGUAGGAUAUCGACCUACAUGAGGAUCACCCAUGUCUUUGUAAAGUUUUUUUAAUUACGAGAAGGACGUUUUGCAU [JR_SSNG2_Sub071] (Eterna round: R96, puzzle: Same State NG 2) | – | – | – | 40.3 | 89.6 | 107
11 | GGACGUCGAUUUCCUACUUAAACAUGAGGAUCACCCAUGUCACAGGAUAUGAGUCCGAUUAGGACUCAGAAGGGUGCGACGUCC [Fiskers NG3ss - 52] (Eterna round: R96, puzzle: Same State NG 3) | – | – | – | 22.7 | 11.1 | 18.8
12 | AACAUGAGGACAUGAACAUGAGGAUCACCCAUGUAUGUUUAUAAGGAUAUAUGAGGAGGAGGAGAAUAGAAGGUAUAGGGAGGG [This also seems to work] (Eterna round: R96, puzzle: Same State NG 3) | – | – | – | 45 | 35.5 | 43.2
13 | AGUCCAGCCUGAGCUGGACAAAAGCAUGUACAUGAGGAUCACCCAUGUUCAUGUACAAGCUUUUUGCUCGUCUUACU [salish99_208a_r3_077] (puzzle: Sensor for hsa-mir-208a) | 618 | 14.6 | 635 | – | – | –
14 | UGUACCUUCAUAGGAUAUCAUGCGAAAAUUGCGUGAGAAGGGUGAAUACUGUCUUUCUAAGAGUACAUGAGGAUCACCCAUGUA [SameState NG1 #62] (Eterna round: R96, puzzle: Same State NG 1) | – | – | – | 181 | 133 | 152
15 | CGGGUGGUUCUAGGAUAUCUAGGAUAUGGACGAGGAUUACCCGAGCAGCAUUAGCGCACCAGAGGAGAGAAGGAGAGUGAUGCG [pwkr ssNG2 2F5 2FMN.16] (Eterna round: R96, puzzle: Same State NG 2) | – | – | – | 251 | 3.25 | 53.3
16 | GUGGUCAGACAUGAGGAUCACCCAUGUGGAAUAAAUAAGGAGAAGGAUAUGAAAUAUAGGAUAUAUCAGAAGGUCUGGUUGGUG (Eterna round: R96, puzzle: Same State NG 3) | – | – | – | – | 59.9 | –

Row | Sequence | apparent KD of MS2 coat protein [1] [nM] | apparent KD of MS2 coat protein [2] [nM] | apparent KD of MS2 coat protein [3] [nM] | apparent KD of MS2 coat protein (input ligand: FMN 200 uM) [nM] | apparent KD of MS2 coat protein [4] [nM] | apparent KD of MS2 coat protein (input ligand: none) [nM]
17 | GAGAGAGGGUGAGGAUAUUCGGUGAUAAUGAUGGGAGAAGGCACAGACAUGAGGAUCACCCAUGUGGGAAUAAUCCAGAGAGAG [Parity 12 - Jieux - Same State NG 1] (Eterna round: R96, puzzle: Same State NG 1) | – | – | – | 138 | 83 | 181
18 | ACCCGAAGUAUAUGGGAACAAGCUUUUUAACAUGAGGAUCACCCAUGUACUCGUCUUAUAAGCAGUCGAAAGACUGC [Sensor 100 - 5] (puzzle: Sensor for hsa-mir-208a) | 21.7 | 17.3 | 44.5 | – | – | –
19 | AGGCUCGUGCUAGGAUAUCUAGGAUAUGGACGAGGAUUACCCGAGGAGCAUUAGCCCACCAGAGGAGAGAAGGAGCUACAUGCG [pwkr ssNG2 2F5 2FMN.12] (Eterna round: R96, puzzle: Same State NG 2) | – | – | – | 1320 | 509 | 513
20 | GAGGAUGAUUUACAGGAUAUAUAGCAGAUGACAUGAGGAUCACCCAUGUAAGAGAAAGGAGGGAGAUAGAAGGGUAUGGGAGGUG [JR_SS2_Sub038] (puzzle: Same State 2) | 29.3 | 35.4 | 43.5 | – | – | –
21 | GCCAUCGCAUGAGGAUAUGGCACCGUUUCGGUGCCAGAAGGCAUGUCAUAAGACAUGAGGAUCACCCAUGUAGUUAAGAUGGCA [JL Fiskers NG1ss - 33 mod 8] (Eterna round: R96, puzzle: Same State NG 1) | – | – | – | 31.4 | 521 | 751
22 | GCGAAAGCGGUAGGAUAUCUAGGAUAUGGGAAGGACUAAGUCUGGAGGUCACCUCACCCAGAAGGAGAGAAGGACACCGAAAGG [pwkr ssNG2 2FMN + F9.1] (Eterna round: R96, puzzle: Same State NG 2) | – | – | – | 534 | 204 | 42.6
23 | AUCCUACAUGAGGAUCACCCAUGUGACGCCUCGAUAGGAUAUGCGUGUGCCUUGGCGCAUGCAGAAGGAUUGUUGC [JL Aveso mod 7] (Eterna round: R96, puzzle: Same State 1) | – | – | – | – | 20.3 | –
24 | GGUCCAUCAUGAGGAUAUGGCACCUUAUUGGUGCCAGAAGGCAUGUCUAUGACAUGAGGAUCACCCAUGUAAAUAAAUUGGACC [Eli NG1ss - 94] (Eterna round: R96, puzzle: Same State NG 1) | – | – | – | 32.3 | 243 | 232
25 | GAGUAGUCAAAAGGAUAUUGAUUAUUGUAGGAUCAAGAAGGUUUUAACAUGAGGAUCACCCAUGUAGGACUAUUCCUGUGUAUC [Parity 91 - Jieux - Same State NG 1] (Eterna round: R96, puzzle: Same State NG 1) | – | – | – | – | 10.8 | –
26 | CGUCGCUGUCGAGAGGAUAUGCGGUGAUGGACAUGAGGAUCACCCAUGUUAGCGAUAGCAUCACGGUAGAAGGCUCUUACGACUG [Soteed Omei mod 24] (puzzle: Same State 2) | 12.6 | 20 | 26.8 | – | – | –
27 | GCUAGAAAUAAAGCCAACAUGAGGAUCACCCAUGUAUGUUGGUAGGAUAUCGUAUGCAAAGCAUACGAGAAGGGCCAAACUAGC [Mat - Same State NG 3 - JL Mod - D21] (Eterna round: R96, puzzle: Same State NG 3) | – | – | – | 72.3 | 65.4 | 122
28 | AAGAAAGUUUACGAGGAUAUGUUCCGCAUAACAUGAGGAUCACCCAUGUGAACAAGAAAGGCGACGCAGAAGGCGUGAGCAAAAG [Mat - Same State 2 - Mod of UCT - D97] (puzzle: Same State 2) | 105 | 199 | 412 | – | – | –
29 | GCUCGACGUGUUGUCUACAUGAGGAUCACCCAUGUAGGUGCGGAGGAUAUCUACGUGUUUCAUGUAGAGAAGGUCGUGUCGAGC [SameState NG3 #89] (Eterna round: R96, puzzle: Same State NG 3) | – | – | – | 40.2 | 55.3 | 73.3
30 | AUCCUACAUGAGGAUCACCCAUGUGACGCCUCGAUAGGAUAUGCGUGUGCCUUGGCGCAUGCAGAAGGAUUGUUGC [JL Aveso mod 7] (puzzle: Same State 1) | 69.2 | 17.5 | 27.1 | – | – | –
31 | GGUCCAGCCUGAGCUGGACAAAAGUAUGUACAUGAGGAUCACCCAUGUCAUGUACAAGCUUUUUGCUCGUCUUAAAA [JL mod - D87 - 9] (puzzle: Sensor for hsa-mir-208a) | 430 | 22.4 | 486 | – | – | –
